# B1: Cavin-1 (natural protein, mouse (endogenous in NSC-34), UniProt O54724 1-392, looked up)
# chain: MEDVTLHIVERPYSGFPDASSEGPEPTQGEARATEEPSGTGSDELIKSDQVNGVLVLSLLDKIIGAVDQIQLTQAQLEERQAEMEGAVQSIQGELSKLGKAHATTSNTVSKLLEKVRKVSVNVKTVRGSLERQAGQIKKLEVNEAELLRRRNFKVMIYQDEVKLPAKLSVSKSLKESEALPEKEGDELGEGERPEDDTAAIELSSDEAVEVEEVIEESRAERIKRSGLRRVDDFKKAFSKEKMEKTKVRTRENLEKTRLKTKENLEKTRHTLEKRMNKLGTRLVPVERREKLKTSRDKLRKSFTPDHVVYARSKTAVYKVPPFTFHVKKIREGEVEVLKATEMVEVGPEDDEVGAERGEATDLLRGSSPDVHTLLEITEESDAVLVDKSDSD
# notes: Cavin-1, endogenous in NSC-34 cells, detected by western blot; source: endogenous, NSC-34 lysate (RIPA buffer)
# Biological target: the molecule itself
# Assay: reducing SDS-PAGE western blot; NSC-34 lysate, SDS-PAGE loading dye with 0.1 M DTT, 12% gel
protein,measurement,value
B1,stoichiometry N,2

# — article PMC13064919, “Novel extracellular vesicle release pathway facilitated by toxic superoxide dismutase 1 oligomers” (Neurobiology of disease, 2026)
